{"source": "patent US7244431B2", "about": "“Allergy vaccines and their preparation” (priority 2000, dated 2007)", "key": {"[1]": {"system": "basophilic granulocytes of birch pollen allergic individuals", "test": "Basophil histamine-release assay", "assay_type": "cell-based, human", "settings": "10^−3-10 μg/ml", "description": "Granulocytes were isolated from heparinized blood samples of 3 birch pollen allergic individuals by dextran sedimentation (Valent, P. et al. (1989) Interleukin 3 activates human blood basophils via high-affinity binding sites. Proc. Natl. Sci. USA 86, 5542-5547). […] Histamine released in the cell-free culture supernatant was measured by radioimmunoassay (Immunotech, Marseille, France). Total histamine was determined after freezing and thawing of cells."}, "[2]": {"system": "IgE antibodies in sera from birch pollen allergic patients", "test": "ELISA detection of peptide- and rBet v 1-specific IgE antibodies", "assay_type": "binding, human", "outline": "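IgE binding detected by 1:1000 alkaline-phosphatase mouse monoclonal anti-human IgE after overnight 4 °C incubation with 1:3-diluted sera. Sera came from 60 birch pollen allergic patients (25 male, 35 female, age 19–60) and a non-atopic control.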"}, "[3]": {"system": "birch pollen allergic patients", "test": "Skin prick testing of allergic patients", "assay_type": "in vivo, human", "description": "SPTs were performed on the individuals forearms as described ([…]. et al. (1997) J. Clin Invest. 99, 1673-168; Dreborg S: (1989) J. Am. Acad. DerMatol. 21, 820-821). […] In addition standardized skin prick solutions (birch pollen extract and histamine) (Allergopharma, Reinbek, Germany) were tested. Reactions were recorded 20 minutes after SPT by photography and by transferring the ballpoint pen-surrounded wheal area with a scotch tape to paper."}, "[4]": {"settings": "all 60 birch pollen allergic patients"}}}
{"molecule": "rBet v 1: purified recombinant Bet v 1, major birch pollen allergen, purchased from BIOMAY (protein) GVFNYETETTSVIPAARLFKAFILDGDNLFPKVAPQAISSVENIEGNGGPGTIKKISFPEGFPFKYVKDRVDEVDHTNFKYNYSVIEGGPIGDTLEKISNEIKIVATPDGGSILKISNKYHTKGDHEVKAEQVKASKEMGETLLRAVESYLLAHSDAYN", "values": [{"measurement": "induction of histamine release", "setting": "[1]", "value": "dose-dependent release of histamine"}, {"measurement": "rBet v1-specific IgE antibodies, mean", "setting": "[2]; [4]", "value": 1.416, "unit": "OD units"}, {"measurement": "rBet v1-specific IgE antibodies, range", "setting": "[2]; [4]", "value": "0.081-2.530 OD units"}, {"measurement": "IgE (OD)", "setting": "[2]; serum of NHS, non-allergic control individual", "value": 0.048, "unit": "OD"}, {"measurement": "IgE (OD)", "setting": "[2]; serum of patient 1", "value": 0.829, "unit": "OD"}, {"measurement": "IgE (OD)", "setting": "[2]; serum of patient 2", "value": 1.380, "unit": "OD"}, {"measurement": "IgE (OD)", "setting": "[2]; serum of patient 3", "value": 2.144, "unit": "OD"}, {"measurement": "IgE (OD)", "setting": "[2]; serum of patient 4", "value": 0.701, "unit": "OD"}, {"measurement": "IgE (OD)", "setting": "[2]; serum of patient 5", "value": 0.344, "unit": "OD"}, {"measurement": "IgE (OD)", "setting": "[2]; serum of patient 6", "value": 2.300, "unit": "OD"}, {"measurement": "IgE (OD)", "setting": "[2]; serum of patient 7", "value": 2.245, "unit": "OD"}, {"measurement": "IgE (OD)", "setting": "[2]; serum of patient 9", "value": 0.196, "unit": "OD"}, {"measurement": "IgE (OD)", "setting": "[2]; serum of patient 10", "value": 0.097, "unit": "OD"}, {"measurement": "IgE (OD)", "setting": "[2]; serum of patient 11", "value": 0.428, "unit": "OD"}, {"measurement": "IgE (OD)", "setting": "[2]; serum of patient 12", "value": 0.271, "unit": "OD"}, {"measurement": "IgE (OD)", "setting": "[2]; serum of patient 13", "value": 0.281, "unit": "OD"}, {"measurement": "IgE (OD)", "setting": "[2]; serum of patient 14", "value": 0.704, "unit": "OD"}, {"measurement": "IgE (OD)", "setting": "[2]; serum of patient 20", "value": 0.249, "unit": "OD"}, {"measurement": "IgE (OD)", "setting": "[2]; serum of patient 21", "value": 0.461, "unit": "OD"}, {"measurement": "IgE (OD)", "setting": "[2]; serum of patient 22", "value": 0.258, "unit": "OD"}, {"measurement": "IgE (OD)", "setting": "[2]; serum of patient 23", "value": 1.555, "unit": "OD"}, {"measurement": "IgE (OD)", "setting": "[2]; serum of patient 25", "value": 0.5, "unit": "OD"}, {"measurement": "IgE (OD)", "setting": "[2]; serum of patient 26", "value": 0.191, "unit": "OD"}, {"measurement": "IgE (OD)", "setting": "[2]; serum of patient 27", "value": 0.535, "unit": "OD"}, {"measurement": "IgE (OD)", "setting": "[2]; serum of patient 28", "value": 0.492, "unit": "OD"}, {"measurement": "IgE (OD)", "setting": "[2]; serum of patient 29", "value": 0.154, "unit": "OD"}, {"measurement": "IgE (OD)", "setting": "[2]; serum of patient 30", "value": 0.081, "unit": "OD"}, {"measurement": "IgE (OD)", "setting": "[2]; serum of patient 32", "value": 0.195, "unit": "OD"}, {"measurement": "IgE (OD)", "setting": "[2]; serum of patient 33", "value": 0.106, "unit": "OD"}, {"measurement": "IgE (OD)", "setting": "[2]; serum of patient 34", "value": 0.377, "unit": "OD"}, {"measurement": "IgE (OD)", "setting": "[2]; serum of patient 36", "value": 0.306, "unit": "OD"}, {"measurement": "IgE (OD)", "setting": "[2]; serum of patient 38", "value": 1.571, "unit": "OD"}, {"measurement": "IgE (OD)", "setting": "[2]; serum of patient 40", "value": 0.084, "unit": "OD"}, {"measurement": "IgE (OD)", "setting": "[2]; serum of patient 43", "value": 0.363, "unit": "OD"}, {"measurement": "IgE (OD)", "setting": "[2]; serum of patient 44", "value": 2.386, "unit": "OD"}, {"measurement": "IgE (OD)", "setting": "[2]; serum of patient 45", "value": 0.289, "unit": "OD"}, {"measurement": "IgE (OD)", "setting": "[2]; serum of patient 47", "value": 0.381, "unit": "OD"}, {"measurement": "IgE (OD)", "setting": "[2]; serum of patient 48", "value": 1.422, "unit": "OD"}, {"measurement": "IgE (OD)", "setting": "[2]; serum of patient 49", "value": 0.379, "unit": "OD"}, {"measurement": "IgE (OD)", "setting": "[2]; serum of patient 51", "value": 0.307, "unit": "OD"}, {"measurement": "IgE (OD)", "setting": "[2]; serum of patient 54", "value": 1.310, "unit": "OD"}, {"measurement": "IgE (OD)", "setting": "[2]; serum of patient 55", "value": 2.489, "unit": "OD"}, {"measurement": "IgE (OD)", "setting": "[2]; serum of patient 56", "value": 2.530, "unit": "OD"}, {"measurement": "IgE (OD)", "setting": "[2]; serum of patient 57", "value": 0.741, "unit": "OD"}, {"measurement": "IgE (OD)", "setting": "[2]; serum of patient 58", "value": 0.072, "unit": "OD"}, {"measurement": "IgE (OD)", "setting": "[2]; serum of patient 59", "value": 0.168, "unit": "OD"}, {"measurement": "concentration inducing immediate type skin reactions in three patients (#1-3)", "setting": "[3]; human, in vivo", "value": "< 0.78", "unit": "µg/mL"}, {"measurement": "concentration sufficient to induce wheal reactions in all five birch pollen allergic patients", "setting": "[3]; human, in vivo", "value": 3.12, "unit": "µg/mL"}, {"measurement": "mean wheal diameter", "setting": "[3]; individual 1, rBet v 1 0.39 μg/ml", "value": 2.5, "unit": "mm"}, {"measurement": "mean wheal diameter", "setting": "[3]; individual 1, rBet v 1 0.78 μg/ml", "value": 4, "unit": "mm"}, {"measurement": "mean wheal diameter", "setting": "[3]; individual 1, rBet v 1 1.56 μg/ml", "value": 4.5, "unit": "mm"}, {"measurement": "mean wheal diameter", "setting": "[3]; individual 1, rBet v 1 3.12 μg/ml", "value": 5, "unit": "mm"}, {"measurement": "mean wheal diameter", "setting": "[3]; individual 1, rBet v 1 6.25 μg/ml", "value": 6, "unit": "mm"}, {"measurement": "mean wheal diameter", "setting": "[3]; individual 1, rBet v 1 12.5 μg/ml", "value": 13, "unit": "mm"}, {"measurement": "mean wheal diameter", "setting": "[3]; individual 2, rBet v 1 0.39 μg/ml", "value": 2, "unit": "mm"}, {"measurement": "mean wheal diameter", "setting": "[3]; individual 2, rBet v 1 0.78 μg/ml", "value": 3.5, "unit": "mm"}, {"measurement": "mean wheal diameter", "setting": "[3]; individual 2, rBet v 1 1.56 μg/ml", "value": 5, "unit": "mm"}, {"measurement": "mean wheal diameter", "setting": "[3]; individual 2, rBet v 1 3.12 μg/ml", "value": 5.5, "unit": "mm"}, {"measurement": "mean wheal diameter", "setting": "[3]; individual 2, rBet v 1 6.25 μg/ml", "value": 7, "unit": "mm"}, {"measurement": "mean wheal diameter", "setting": "[3]; individual 2, rBet v 1 12.5 μg/ml", "value": 7.5, "unit": "mm"}, {"measurement": "mean wheal diameter", "setting": "[3]; individual 2, rBet v 1 25 μg/ml", "value": 8, "unit": "mm"}, {"measurement": "mean wheal diameter", "setting": "[3]; individual 3, rBet v 1 0.78 μg/ml", "value": 2, "unit": "mm"}, {"measurement": "mean wheal diameter", "setting": "[3]; individual 3, rBet v 1 1.56 μg/ml", "value": 3, "unit": "mm"}, {"measurement": "mean wheal diameter", "setting": "[3]; individual 3, rBet v 1 3.12 μg/ml", "value": 4, "unit": "mm"}, {"measurement": "mean wheal diameter", "setting": "[3]; individual 3, rBet v 1 6.25 μg/ml", "value": 6, "unit": "mm"}, {"measurement": "mean wheal diameter", "setting": "[3]; individual 3, rBet v 1 12.5 μg/ml", "value": 6.5, "unit": "mm"}, {"measurement": "mean wheal diameter", "setting": "[3]; individual 3, rBet v 1 25 μg/ml", "value": 8, "unit": "mm"}, {"measurement": "mean wheal diameter", "setting": "[3]; individual 4, rBet v 1 3.12 μg/ml", "value": 2, "unit": "mm"}, {"measurement": "mean wheal diameter", "setting": "[3]; individual 4, rBet v 1 6.25 μg/ml", "value": 3, "unit": "mm"}, {"measurement": "mean wheal diameter", "setting": "[3]; individual 4, rBet v 1 12.5 μg/ml", "value": 4, "unit": "mm"}, {"measurement": "mean wheal diameter", "setting": "[3]; individual 4, rBet v 1 25 μg/ml", "value": 4.5, "unit": "mm"}, {"measurement": "mean wheal diameter", "setting": "[3]; individual 5, rBet v 1 1.56 μg/ml", "value": 2, "unit": "mm"}, {"measurement": "mean wheal diameter", "setting": "[3]; individual 5, rBet v 1 3.12 μg/ml", "value": 2.5, "unit": "mm"}, {"measurement": "mean wheal diameter", "setting": "[3]; individual 5, rBet v 1 6.25 μg/ml", "value": 4, "unit": "mm"}, {"measurement": "mean wheal diameter", "setting": "[3]; individual 5, rBet v 1 12.5 μg/ml", "value": 11, "unit": "mm"}, {"measurement": "mean wheal diameter", "setting": "[3]; individual 5, rBet v 1 25 μg/ml", "value": 5, "unit": "mm"}]}
